Patent US20230405078

Biological target: T1, elafin (AS-61641, Anaspec)
T1 chain: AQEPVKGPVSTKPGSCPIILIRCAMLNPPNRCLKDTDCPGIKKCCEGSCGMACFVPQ

B1: recombinant cathepsin S (1183-CY-010, R&D Systems) (protein)
chain: QLHKDPTLDHHWHLWKKTYGKQYKEKNEEAVRRLIWEKNLKFVMLHNLEHSMGMHSYDLGMNHLGDMTSEEVMSLMSSLRVPSQWQRNITYKSNPNRILPDSVDWREKGCVTEVKYQGSCGACWAFSAVGALEAQLKLKTGKLVSLSAQNLVDCSTEKYGNKGCNGGFMTTAFQYIIDNKGIDSDASYPYKAMDQKCQYDSKYRAATCSKYTELPYGREDVLKEAVANKGPVSVGVDARHPSFFLYRSGVYYEPSCTQNVNHGVLVVGYGDLNGKEYWLVKNSWGHNFGEEGYIRMARNKGNHCGIASFPSYPEI
ERK1/2 phosphorylation and ProCOL1A2 expression in colonic fibroblasts: reversed elafin-mediated inhibition of ERK1/2 phosphorylation and ProCOL1A2 expression in colonic fibroblasts
